Reference: patent US20210101973A1
Ends that are not written are not given here.

Key:
[1] = target: GHSR on the PathHunter U2OS GHSR beta-Arrestin Cell Line (DiscoverX), Q92847; test: cell-based or functional assay
[2] = target: wild-type GHSR stably expressed in an independent cell line (calcium mobilization assay), Q92847; test: cell-based or functional assay
wild-type GHSR stably expressed in an independent cell line (calcium mobilization assay), Q92847, sequence (Q92847 whole entry): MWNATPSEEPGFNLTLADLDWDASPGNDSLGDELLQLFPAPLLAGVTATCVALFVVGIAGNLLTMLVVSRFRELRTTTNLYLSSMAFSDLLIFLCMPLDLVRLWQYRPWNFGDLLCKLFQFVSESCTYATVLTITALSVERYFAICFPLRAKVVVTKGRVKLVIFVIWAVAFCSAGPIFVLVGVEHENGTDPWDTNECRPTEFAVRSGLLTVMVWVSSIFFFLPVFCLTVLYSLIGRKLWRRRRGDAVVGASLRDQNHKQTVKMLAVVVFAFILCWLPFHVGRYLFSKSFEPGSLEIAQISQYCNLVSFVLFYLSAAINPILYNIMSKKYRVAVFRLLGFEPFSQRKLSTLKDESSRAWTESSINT

- IC50 of inhibition of ghrelin-induced GHSR activation, PathHunter beta-arrestin assay, antagonist format (ghrelin 13 nM) [1]: 6.74 nM
- IC50 of abrogation of ghrelin-induced GHSR activity, calcium mobilization (FLUO-3) [2]: 11.6 nM
B1: synthetic LEAP2 peptide (mature peptide of human LEAP2) (peptide)
peptide: MTPFWRGVSLRPIGASCRDDSECITRLCRKRRCSLSVAQE
modifications: disulfide (positions not given here); also: labeled with Alexa 647, site not given here
